Reference: patent US20200048649A1 (CENTRE NATIONAL DE LA RECHERCHE SCIENTIFIQUE, published 2020)

Experiments:
[1] = target: T1, Grapevine fanleaf virus (GFLV) isolate F13 particles (capsid made of the coat protein, CP) (Grapevine fanleaf virus isolate F13, UniProt P18474 606-1109); assay: DAS-ELISA on infected leaves, capture by Ab BIOREBA, detection by Nb:ALP
T1 sequence: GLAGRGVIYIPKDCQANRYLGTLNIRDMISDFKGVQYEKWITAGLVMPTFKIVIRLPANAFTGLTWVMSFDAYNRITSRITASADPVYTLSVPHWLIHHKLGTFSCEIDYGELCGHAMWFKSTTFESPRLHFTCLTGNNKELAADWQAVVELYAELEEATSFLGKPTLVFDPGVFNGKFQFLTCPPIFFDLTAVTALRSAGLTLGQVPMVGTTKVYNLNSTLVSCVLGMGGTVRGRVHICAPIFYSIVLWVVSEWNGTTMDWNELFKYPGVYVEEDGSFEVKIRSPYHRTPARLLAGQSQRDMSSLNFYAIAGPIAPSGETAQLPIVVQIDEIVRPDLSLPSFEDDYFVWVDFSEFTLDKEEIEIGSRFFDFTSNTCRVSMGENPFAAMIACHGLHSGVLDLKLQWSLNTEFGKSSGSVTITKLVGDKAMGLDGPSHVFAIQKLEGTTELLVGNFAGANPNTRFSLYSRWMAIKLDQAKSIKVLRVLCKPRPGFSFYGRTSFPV

[2] = target: T1, Grapevine fanleaf virus (GFLV) isolate …; assay: competitive ELISA on coated GFLV, legend of FIG. 19a
[3] = target: T2, TRCP VLP (virus-like particle of GFLV CP fused at its N-terminus to TagRFP) (Grapevine fanleaf virus isolate F13 (CP …)); assay: microscale thermophoresis in solution, fluorescent TRCP VLP constant, nanobody titrated, 1:1 model, n=3; SD ±3.37
T2 construct: also called TRCP VLPs; VLP-TRCP

[4] = target: T2, TRCP VLP (virus-like particle of GFLV …); assay: dynamic light scattering; TRCP VLP alone 32.0 nm±2 nm
[5] = target: T2, TRCP VLP (virus-like particle of GFLV …); assay: microscale thermophoresis in solution, fluorescent TRCP VLP constant, nanobody titrated, 1:1 model, n=3; SD ±2.91
[6] = target: T2, TRCP VLP (virus-like particle of GFLV …); assay: microscale thermophoresis in solution, fluorescent TRCP VLP constant, nanobody titrated, 1:1 model, n=3; SD ±13.63
[7] = target: T1, Grapevine fanleaf virus (GFLV) isolate …; assay: DAS-ELISA on infected leaves, capture Ab Bioreba, detection Nbp75:ALP
[8] = target: T1, Grapevine fanleaf virus (GFLV) isolate …

B1: Nbp59 fused to alkaline phosphatase (VHH)
VHH: QVQLQESGGGTVQAGGSLRLSCSISGDTSNSYCMGWFRQAPGKEREVVAHISTGVISPGYNKFSEGRFTISPDNAKNSVYLQMNNLKPDDTAMYYCAARTGYCSGSWGVADSFNGWGQGTQVTVSS
B1: binds [1].

B2: Strep-tagged Nbp59 (VHH)
VHH: QVQLQESGGGTVQAGGSLRLSCSISGDTSNSYCMGWFRQAPGKEREVVAHISTGVISPGYNKFSEGRFTISPDNAKNSVYLQMNNLKPDDTAMYYCAARTGYCSGSWGVADSFNGWGQGTQVTVSS
B2: binds [2].

B3: Nanobody Nbp59 (VHH)
VHH: QVQLQESGGGTVQAGGSLRLSCSISGDTSNSYCMGWFRQAPGKEREVVAHISTGVISPGYNKFSEGRFTISPDNAKNSVYLQMNNLKPDDTAMYYCAARTGYCSGSWGVADSFNGWGQGTQVTVSS
B3 showed a Kd [3] of 12.6 nM.

B4: Nanobody Nb23 (VHH)
VHH: QVQLQESGGGSVQVGGSLRVACAASGDTFSGYLAAWFRQAPGKGREGVAAINSKRHTTSYADSVKGRFTISKDNADNIMYLEMNSLKPEDTAIYYCAAADAIGLAEYWSTPTLSAARYKYWGQGTQVTVSS
For B4, the “particle diameter of the VLP saturated with the nanobody (DLS)” value (“particle diameter of the VLP saturated” for short) [4] was 37.8 nm and the Kd [5] was 9.13 nM.

B5: Nb23 fused to EGFP (VHH)
VHH: QVQLQESGGGSVQVGGSLRVACAASGDTFSGYLAAWFRQAPGKGREGVAAINSKRHTTSYADSVKGRFTISKDNADNIMYLEMNSLKPEDTAIYYCAAADAIGLAEYWSTPTLSAARYKYWGQGTQVTVSS
B5 was tested, and the “particle diameter of the VLP saturated” value [4] was 43.8 nm.

B6: Nb23 fused to bacterial alkaline phosphatase (VHH)
chain: QVQLQESGGGSVQVGGSLRVACAASGDTFSGYLAAWFRQAPGKGREGVAAINSKRHTTSYADSVKGRFTISKDNADNIMYLEMNSLKPEDTAIYYCAAADAIGLAEYWSTPTLSAARYKYWGQGTQVTVSSGGGSGGGVKQSTIALALLPLLFTPVTKARTPEMPLQTQATSREEPPRLPSKHRPGVKTQATSREEPPRLPSKHRPGVKTQATSREEPPRLPSKHRPGVKTQATSREEPPRLPSKHRPGVKTQATSLEVLENRAAQGDITAPGGARRLTGDQTAALRDSLSDKPAKNIILLIGDGMGDSEITAARNYAEGAGGFFKGIDALPLTGQYTHYALNKKTGKPDYVTDSAASATAWSTGVKTYNGALGVDIHEKDHPTILEMAKAAGLATGNVSTAELQDATPAALVAHVTSRKCYGPSATSEKCPGNALEKGGKGSITEQLLNARADVTLGGGAKTFAETATAGEWQGKTLREQAQARGYQLVSDAASLNSVTEANQQKPLLGLFADGNMPVRWLGPKATYHGNIDKPAVTCTPNPQRNDSVPTLAQMTDKAIELLSKNEKGFFLQVEGASIDKQDHAANPCGQIGETVDLDEAVQRALEFAKKEGNTLVIVTADHAHASQIVAPDTKAPGLTQALNTKDGAVMVMSYGNSEEDSQEHTGSQLRIAAYGPHAAHHHHHH
For B6, the “particle diameter of the VLP saturated” value [4] was 40 nm.

B7: Nanobody Nb122 (VHH)
VHH: QVQLQESGGGSVQGGGSLRLSCAVSGYRFSSYAMAWFRQAPGKEREAVAAYYRGFGGAQHSTHYAASVTGRFTITQNDALNTGYLQMNNLKPEDTAMYYCALSTADDDDWHSLRRYNYWGQGTQVTVSS
B7 was tested, and the Kd [6] was 34.5 nM.

B8: Strep-tagged Nb122 (VHH)
VHH: QVQLQESGGGSVQGGGSLRLSCAVSGYRFSSYAMAWFRQAPGKEREAVAAYYRGFGGAQHSTHYAASVTGRFTITQNDALNTGYLQMNNLKPEDTAMYYCALSTADDDDWHSLRRYNYWGQGTQVTVSS
B8: binds [2].

B9: Strep-tagged Nbp75 (VHH)
VHH: QVQLQESGGGSVQAGGSLRLSCVASEYPSSSTAMAWFRQAPGKEREGVAAINSVRHTTSYADSVKGRFTISKDNADNMMYLEMNSLKPEDTAIYYCAAADAIGLAEYWSTPTLSAARYKYWGQGTQVTVSS
B9: binds [2].

B10: Nbp75 fused to alkaline phosphatase (VHH)
VHH: QVQLQESGGGSVQAGGSLRLSCVASEYPSSSTAMAWFRQAPGKEREGVAAINSVRHTTSYADSVKGRFTISKDNADNMMYLEMNSLKPEDTAIYYCAAADAIGLAEYWSTPTLSAARYKYWGQGTQVTVSS
B10: binds [7].

B11: Strep-tagged Nb125 (VHH)
VHH: QVQLQESGGGSVQAGGSLRLSCAASGYTYSMYCMAWFRQAPGKEREGVAAINSGNRSTYYADSVKGRFTISQDNAKNTVYLIMNSLKPEDTAIYYCAADPQRCGSWTWANMYEYNYWGQGTQVTVSS
B11: binds [2].

B12: Nb122 fused to alkaline phosphatase (VHH)
chain: MAQVQLQESGGGSVQGGGSLRLSCAVSGYRFSSYAMAWFRQAPGKEREAVAAYYRGFGGAQHSTHYAASVTGRFTITQNDALNTGYLQMNNLKPEDTAMYYCALSTADDDDWHSLRRYNYWGQGTQVTVSSGGGSGGGVKQSTIALALLPLLFTPVTKARTPEMPLQTQATSREEPPRLPSKHRPGVKTQATSREEPPRLPSKHRPGVKTQATSREEPPRLPSKHRPGVKTQATSREEPPRLPSKHRPGVKTQATSLEVLENRAAQGDITAPGGARRLTGDQTAALRDSLSDKPAKNIILLIGDGMGDSEITAARNYAEGAGGFFKGIDALPLTGQYTHYALNKKTGKPDYVTDSAASATAWSTGVKTYNGALGVDIHEKDHPTILEMAKAAGLATGNVSTAELQDATPAALVAHVTSRKCYGPSATSEKCPGNALEKGGKGSITEQLLNARADVTLGGGAKTFAETATAGEWQGKTLREQAQARGYQLVSDAASLNSVTEANQQKPLLGLFADGNMPVRWLGPKATYHGNIDKPAVTCTPNPQRNDSVPTLAQMTDKAIELLSKNEKGFFLQVEGASIDKQDHAANPCGQIGETVDLDEAVQRALEFAKKEGNTLVIVTADHAHASQIVAPDTKAPGLTQALNTKDGAVMVMSYGNSEEDSQEHTGSQLRIAAYGPHAAHHHHHH
With B12 the “EC50 (read off the curve)” value [8] was about 10000 nM.
